Data taken from US20130121989.
Residue numbers refer to the chain shown, from its start.

T1: Tetrahymena K40R α-tubulin (axonemes from a K40R Tetrahymena mutant), P41351
T1 chain: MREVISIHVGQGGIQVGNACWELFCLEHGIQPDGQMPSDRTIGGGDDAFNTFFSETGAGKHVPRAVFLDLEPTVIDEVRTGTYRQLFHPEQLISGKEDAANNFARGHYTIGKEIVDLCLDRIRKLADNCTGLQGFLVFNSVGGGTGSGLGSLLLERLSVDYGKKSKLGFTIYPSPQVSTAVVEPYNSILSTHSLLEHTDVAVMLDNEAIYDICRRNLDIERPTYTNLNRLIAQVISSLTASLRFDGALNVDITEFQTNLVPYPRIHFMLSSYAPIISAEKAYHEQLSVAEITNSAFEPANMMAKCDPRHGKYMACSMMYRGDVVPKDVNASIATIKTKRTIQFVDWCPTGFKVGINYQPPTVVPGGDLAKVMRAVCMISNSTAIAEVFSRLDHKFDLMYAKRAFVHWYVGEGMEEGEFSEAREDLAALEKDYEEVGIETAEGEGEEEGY

T2: Tetrahymena α-tubulin with non-acetylated K40, from the MEC17-KO strain (as axonemes or as purified tubulin), P41351
T2 chain: T1 chain with R40K

B1: GST-MmMEC-17 (recombinant murine MEC-17 expressed in E. coli as a GST fusion) (protein)
chain: MEFPFDVDALFPERITVLDQHLRPPARRPGTTTPARVDLQQQIMTIVDELGKASAKAQHLPAPITSALRMQSNRHVIYILKDTSARPAGKGAIIGFLKVGYKKLFVLDDREAHNEVEPLCILDFYIHESVQRHGHGRELFQHMLQKERVEPHQLAIDRPSPKLLKFLNKHYNLETTVPQVNNFVIFEGFFAHQHRPPTSSLRATRHSRAAVADPIPAAPARKLPPKRAEGDIKPYSSSDREFLKVAVEPPWPLNRAPRRATPPAHPPPRSSSLGNSPDRGPLRPFVPEQELLRSLRLCPPHPTARLLLATDPGGSPAQRRRTRGTPWGLVAQSCHYSRHGGFNTSFLGTGNQERKQGEQEAEDRSASEDRVLLLDGSGEEPTQTGAPRAQAPPPQSWTVGGDIMNARVIRNLQERRSTRPW
B2: GFP-Mec17p (Tetrahymena MEC-17 tagged with GFP, crude enriched soluble fraction from transgenic Tetrahymena) (protein)
chain: MFKNQLLSLSLRIQKLRLCRQGNQLKVLQKSINQLLFKTQSIDQILQYLQQKKKTHQSILENQNQHIHSIGLVSQLTNQKINKQKNQKAMEFNFIINKLVQLDQQGLGVYIPRASRSKVSSQQEQQLGQVLNTMGERSAIAQGLKQVITNYDKVQGTDQRVYIVAEGRTCQGFLKVGQKNLFYRDMMGNIKEIKPLCVLDFYVHESCQRQGYGKLLFEYMIQCEQTSPEKLAYDRPSPKLIAFLKKHYNLVKYIAQNNNFVVFDQYFRSDASSQNKQNQNTRSYSQPYSDYSSQIPTNYPQQQQQQSNSKSYPYKQENNIDLMQHSSSRNNKEFLNAGRAILSKEEIYKKDNLSQQNIENTLNNINNSQYSTKSQQQQQYQKDYQLDKYENNWGADKNIKKPPFPGQDRQLDKIQQKIQQTERELDVVNQQIIKQRQNLSQDPLTQNHRAQNVYNTNQFGTSPWAQTGFNYYSTSSSNYGNHYTYYKK

Columns and labels:
[1] = biological target: T1, Tetrahymena K40R α-tubulin (axonemes …)
[2] = biological target: T2, Tetrahymena α-tubulin with …

| Protein | in vitro acetylation of R40 (K40R) axonemes, western blot with pan acetyl-K antibodies [1] | in vitro acetylation of K40 axonemes, western blot with pan acetyl-K antibodies [2] | in vitro tubulin acetylation (αTAT) assay on MEC17-KO axonemes with acetyl-CoA, western blot with 6-11 B-1 mAb [2] | in vitro tubulin acetylation (K40 αTAT) assay on MEC17-KO axonemes, western blot with 6-11 B-1 mAb [2] |
| --- | --- | --- | --- | --- |
| B1 | failed to acetylate R40 axonemes | GST-MmMEC-17 modified K40 axonemes | GST-MmMEC-17, but not GST, mediated a robust αTAT activity in vitro | – |
| B2 | – | – | – | A crude GFP-Mec17p-enriched fraction (obtained from transgenic Tetrahymena) had K40 αTAT activity in vitro that was dependent on the presence of acetyl-CoA |
